Measured values from article PMC10397247.
Like-named read-outs stand apart in the source and are kept apart here. Values belong to the binder of their own block, whether it stands above or below them.

How the values were obtained:
Experiment in all cases: two-hybrid library CCmax;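 note: natural log of median RNA to DNA barcode read ratio; higher means stronger binding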
[1] = biological target: T1, 4H967-AA
T1 chain: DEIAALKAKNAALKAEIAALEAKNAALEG

[2] = biological target: T2, 4H3855-AA
T2 chain: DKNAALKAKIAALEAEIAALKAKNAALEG

[3] = biological target: T3, 4H717-AA; conditions: mean of both orientations
T3 chain: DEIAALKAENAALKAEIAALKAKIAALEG

[4] = biological target: T4, 4H918-AA
T4 chain: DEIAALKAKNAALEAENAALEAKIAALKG

[5] = biological target: T5, 4H568-AA; conditions: mean of both orientations
T5 chain: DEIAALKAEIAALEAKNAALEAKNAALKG

[6] = biological target: T6, 4H953-AA; conditions: mean of both orientations
T6 chain: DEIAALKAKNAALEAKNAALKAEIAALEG

[7] = biological target: T7, 4H883-AA; conditions: mean of both orientations
T7 chain: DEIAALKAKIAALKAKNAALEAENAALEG

[8] = biological target: T8, 4H797-AA; conditions: mean of both orientations
T8 chain: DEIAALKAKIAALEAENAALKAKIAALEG

[9] = biological target: T9, 4H687-AA; conditions: mean of both orientations
T9 chain: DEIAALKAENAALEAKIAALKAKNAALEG

[10] = biological target: T10, 4H4001-AA; conditions: mean of both orientations
T10 chain: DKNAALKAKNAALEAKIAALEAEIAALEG

[11] = biological target: T11, 4H780-AA; conditions: mean of both orientations
T11 chain: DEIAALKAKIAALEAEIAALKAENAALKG

[12] = biological target: T12, 4H3844-AA; conditions: mean of both orientations
T12 chain: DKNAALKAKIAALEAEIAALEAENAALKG

[13] = biological target: T13, 4H3627-AA; conditions: mean of both orientations
T13 chain: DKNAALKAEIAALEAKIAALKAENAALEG

[14] = biological target: T14, 4H3921-AA; conditions: mean of both orientations
T14 chain: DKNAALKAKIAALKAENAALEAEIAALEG

[15] = biological target: T15, 4H3782-AA; conditions: mean of both orientations
T15 chain: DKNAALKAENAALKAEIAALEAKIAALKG

[16] = biological target: T16, 4H454-AA; conditions: mean of both orientations
T16 chain: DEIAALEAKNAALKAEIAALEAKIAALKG

[17] = biological target: T17, 4H3655-AA; conditions: mean of both orientations
T17 chain: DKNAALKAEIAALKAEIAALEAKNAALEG

[18] = biological target: T18, 4H794-AA; conditions: mean of both orientations
T18 chain: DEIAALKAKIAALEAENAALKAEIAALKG

[19] = biological target: T19, 4H429-AA; conditions: mean of both orientations
T19 chain: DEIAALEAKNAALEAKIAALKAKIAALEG

[20] = biological target: T20, 4H881-AA; conditions: mean of both orientations
T20 chain: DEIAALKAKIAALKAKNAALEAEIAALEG

[21] = biological target: T21, 4H3427-AA
T21 chain: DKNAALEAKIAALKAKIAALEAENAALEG

[22] = biological target: T22, 4H3606-AA; conditions: mean of both orientations
T22 chain: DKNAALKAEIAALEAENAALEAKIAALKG

[23] = biological target: T23, 4H48-AA; conditions: mean of both orientations
T23 chain: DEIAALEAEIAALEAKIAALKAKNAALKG

[24] = biological target: T24, 4H993-AA; conditions: mean of both orientations
T24 chain: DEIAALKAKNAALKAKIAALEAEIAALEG

[25] = biological target: T25, 4H906-AA; conditions: mean of both orientations
T25 chain: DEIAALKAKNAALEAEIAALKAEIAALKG

[26] = biological target: T26, 4H678-AA; conditions: mean of both orientations
T26 chain: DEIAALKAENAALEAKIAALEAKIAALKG

[27] = biological target: T27, 4H605-AA; conditions: mean of both orientations
T27 chain: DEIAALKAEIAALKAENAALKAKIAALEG

[28] = biological target: T28, 4H566-AA; conditions: mean of both orientations
T28 chain: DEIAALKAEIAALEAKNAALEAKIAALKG

interaction score [1]: -1.53
interaction score [2]: 1.05
interaction score [3]: -1.18
interaction score ([4]; mean of both orientations): -2.01
interaction score [5]: -1.35
interaction score [6]: -1.89
interaction score [7]: -1.77
interaction score [8]: -1.29
interaction score [9]: -1.5
interaction score [10]: -0.86
Binder: DKNAALKAKIAALEAEIAALKAKNAALEG [4H3855-AA]

interaction score [11]: -1.61
interaction score [12]: 0.482
interaction score [13]: -0.773
interaction score ([1]; mean of both orientations): -1.59
interaction score [14]: -1.79
interaction score ([2]; mean of both orientations): -1.01
interaction score [15]: -0.991
interaction score [16]: -0.567
interaction score [17]: 0.589
interaction score [3]: -1.29
interaction score [4]: -1.2
interaction score [18]: -1.26
interaction score [5]: -0.257
interaction score [19]: -1.37
interaction score [6]: -1.66
interaction score [7]: -1.7
interaction score [20]: -1.68
interaction score [8]: -1.46
interaction score [21]: -0.802
interaction score [9]: -1.62
interaction score [22]: -0.74
interaction score [23]: 1.18
interaction score [24]: -1.24
interaction score [25]: -1.69
interaction score [26]: -1.47
interaction score [27]: -1.66
interaction score [28]: -1.35
interaction score [10]: -1.06
Binder: DKNAALEAKIAALKAKIAALEAENAALEG [4H3427-AA]
